# Measurements reported in article PMC8094900.
# Key:
# [1] = biological target: Myrf N-terminal fragment (wild-type mouse Myrf) (mouse); experiment: cold western blot (SDS-PAGE in a cold chamber); N-terminally Flag-tagged Myrf constructs expressed in Oli-neu cells; SDS-PAGE in a cold condition, membrane probed with Flag antibodies; ratio of trimeric to monomeric N-terminal fragment
# [2] = biological target: Myrf-F387S N-terminal fragment; experiment: cold western blot (cold SDS-PAGE, Flag immunoblot); conditions: Flag-tagged constructs expressed in Oli-neu cells; SDS-PAGE in a cold condition; parent: est. 0.27; read off a plot
# [3] = biological target: Myrf-G435R N-terminal fragment; experiment: cold western blot (cold SDS-PAGE, Flag immunoblot); conditions: Flag-tagged constructs expressed in Oli-neu cells; SDS-PAGE in a cold condition; parent: est. 0.27; read off a plot
# [4] = biological target: Myrf-L479V N-terminal fragment; experiment: cold western blot (cold SDS-PAGE, Flag immunoblot); conditions: Flag-tagged constructs expressed in Oli-neu cells; SDS-PAGE in a cold condition; parent: est. 0.27; read off a plot
# [5] = biological target: Myrf-Q403H N-terminal fragment; experiment: cold western blot (cold SDS-PAGE, Flag immunoblot); conditions: Flag-tagged constructs expressed in Oli-neu cells; SDS-PAGE in a cold condition; parent: est. 0.27; read off a plot
# Myrf N-terminal fragment (wild-type mouse Myrf), sequence (Q3UR85 whole entry, the tested form may be a part): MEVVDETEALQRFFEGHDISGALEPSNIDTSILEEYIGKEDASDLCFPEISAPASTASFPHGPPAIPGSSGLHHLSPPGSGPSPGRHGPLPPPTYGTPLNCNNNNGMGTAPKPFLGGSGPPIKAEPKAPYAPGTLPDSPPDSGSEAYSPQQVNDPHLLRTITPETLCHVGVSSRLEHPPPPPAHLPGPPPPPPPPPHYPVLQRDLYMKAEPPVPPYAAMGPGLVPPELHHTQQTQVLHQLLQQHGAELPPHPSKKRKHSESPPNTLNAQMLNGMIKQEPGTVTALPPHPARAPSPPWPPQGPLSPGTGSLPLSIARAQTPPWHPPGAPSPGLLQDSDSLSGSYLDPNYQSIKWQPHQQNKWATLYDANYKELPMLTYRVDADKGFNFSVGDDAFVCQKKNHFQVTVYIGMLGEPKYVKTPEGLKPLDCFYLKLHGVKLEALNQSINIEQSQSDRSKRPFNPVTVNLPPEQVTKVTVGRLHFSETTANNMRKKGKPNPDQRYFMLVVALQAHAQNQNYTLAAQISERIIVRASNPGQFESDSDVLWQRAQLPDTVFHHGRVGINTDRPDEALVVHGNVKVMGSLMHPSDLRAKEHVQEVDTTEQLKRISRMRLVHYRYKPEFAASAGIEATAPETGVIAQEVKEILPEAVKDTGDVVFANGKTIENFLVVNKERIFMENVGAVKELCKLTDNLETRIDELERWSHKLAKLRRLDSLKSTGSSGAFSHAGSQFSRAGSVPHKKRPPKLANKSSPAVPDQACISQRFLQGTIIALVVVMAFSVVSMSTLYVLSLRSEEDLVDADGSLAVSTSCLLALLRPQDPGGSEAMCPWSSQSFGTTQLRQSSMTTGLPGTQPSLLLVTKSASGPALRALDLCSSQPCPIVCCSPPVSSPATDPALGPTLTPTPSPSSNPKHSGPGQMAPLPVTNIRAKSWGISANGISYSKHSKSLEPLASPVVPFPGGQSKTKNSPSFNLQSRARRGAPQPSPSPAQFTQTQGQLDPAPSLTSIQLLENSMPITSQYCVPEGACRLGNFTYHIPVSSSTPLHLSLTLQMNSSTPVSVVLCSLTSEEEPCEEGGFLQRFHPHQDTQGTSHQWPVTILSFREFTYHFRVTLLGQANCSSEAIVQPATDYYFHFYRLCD
substance,measurement,setting,value
Myrf N-terminal fragment (wild-type mouse Myrf) (domain or fragment),stoichiometry N,[1],3
Myrf N-terminal fragment (wild-type mouse Myrf) F387S,other: Trimer/(Trimer+Monomer),[2],0.045
Myrf N-terminal fragment (wild-type mouse Myrf) G435R,other: Trimer/(Trimer+Monomer),[3],0.02
Myrf N-terminal fragment (wild-type mouse Myrf) L479V,other: Trimer/(Trimer+Monomer),[4],0.01
Myrf N-terminal fragment (wild-type mouse Myrf) Q403H,other: Trimer/(Trimer+Monomer),[5],0.08
